The data set can be described thus: yeast display, Sf9 membrane polyspecificity reagent, FACS + sequencing; frameworks hold sequencing errors. In outline:
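A nanobody's polyreactivity label depends on the gate it was sorted from. Yeast display cells were stained with 10% biotinylated, detergent-solubilized Sf9 membrane reagent for 1 hour at 4 °C, enriched on streptavidin microbeads and sorted by FACS. The low and high (top ~1%) gates were set on anti-HA fluorescence for expression and streptavidin fluorescence for reagent binding.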
For “QVQLVESGGGLVQAGGSLRLSCAASGSTFWPYAMGWYRQAPGKERELVAAITRSGGSTYYADSVKGRFTISRDNAKNTVYLQMNSLKPEDTAVYYCAKYTSSRFEYDYWGQGTQVTVSS”, the “polyreactivity (PSR sort gate)” value is “low polyreactivity”.
The result for “QVQLVESGGGLVQAGGSLRLSCAASGSTFWSYAMGWYRQAPGKERELVADIRWSGDGTYYADSVKGRFTISRDNAKITVYLQMNSLKPEDTAVYYCAADYFPVNSYGYWGQGTQVTVSS” reads “low polyreactivity”; that for “QVQLVESGGGLVQAGGSLRLSCAASGSTFWSYTMGWYRQAPGKERELVAAIRFSGGSTYYADSVKGRFTISRDNAKNTVYLQMNSLKPEDTAVYYCAAGYYRRPYEYWGQGTQVTVSS”, “low polyreactivity”.
As to “QVQLVESGGGLVQAGGSLRLSCAASGSTFWTNAMGWFRHAPGKVRELVATISKTTGRTNYADSEKGRFTISRDNAKNTVYLQMNSLKPEDTAVYYCAAEPYSWDTWVDYDYWGIGTQVTVSS”, the “polyreactivity (PSR sort gate)” value was “low polyreactivity”.
In the case of “QVQLVESGGGLVQAGGSLRLSCAASGSTFWTNDMGWYRQAPGKERELVAAISQSAGDTYYADSVKGRFTISRDNAKNTVYLQMNSLKPEDTAVYYCAADLVFYPFTWDGYYYWGQGTQVTVSS”, the “polyreactivity (PSR sort gate)” value is on record as “low polyreactivity”.
Take “QVQLVESGGGLVQAGGSLRLSCAASGSTFWVNAMGWYRQAPGKVRELVAAIRRGGSTKYADSVKGRFTISRDNAKNTFYLQINSLKPEDTAVSYCAADAPGHEYYYWGQGTQVTVSS”: the “polyreactivity (PSR sort gate)” value is listed as “high polyreactivity”.
The same measure for “QVQLVESGGGLVQAGGSLRLSCAASGSTFWVYAMGWYRQAPGKERELVATISRGGSTNYADSVKGRFTISRDNAKNTVYLQMNSLKPEDTAVYYCAAPRFYGYGYEYCGQGTQVTVSS”: “low polyreactivity”.
The same measure for “QVQLVESGGGLVQAGGSLRLSCAASGSTFWWNTMGWYRQAPWKERELVADIRTSGGGTYYADSVKGRFTISRDNAKNTVYLQMNSLKPEDTAVYYCNADPKWEMGSWGQGTQVTVSS”: “low polyreactivity”.
The result for “QVQLVESGGGLVQAGGSLRLSCAASGSTFWWNTRGWYRQAPGKERELVADIRTSGGGTYYADSVKGRFTISLDNAKNTFYLQMNSLKPEDTAVYYCNADPKWEMGSWGQGTQVTVSS” reads “low polyreactivity”; that for “QVQLVESGGGLVQAGGSLRLSCAASGSTFWYYAMGWYRQAPGKESELVAGITQSGGSTYYADSVKGRFTISRDNAKNTVYLQMNSLKPEDTAVYYCAKDGRVSGDFDYWGQGTQVTVSS”, “low polyreactivity”.
Take “QVQLVESGGGLVQAGGSLRLSCAASGSTFWYYAMGWYRQEPGKERELVASITYSGGSTYYADSVKGRFTISRDNAKNTVYLQMNSLKPEDTAVYYCAAQSPAYYTKSYWGQGTQVTVSS”: the “polyreactivity (PSR sort gate)” value is recorded as “low polyreactivity”.
The same measure for “QVQLVESGGGLVQAGGSLRLSCAASGSTFWYYGMGWYRQAPGKERELVAAITRGGSTYYADSVKGRFTISRDNAKNTVYLQMISLNPEDTAVYYCAAGISVRWSPSYYYWGQGTQVTVSS”: “high polyreactivity”; for “QVQLVESGGGLVQAGGSLRLSCAASGSTFWYYVMGWYRQAPGKERELVAAIDWTGDSTYYADSVKGRFTISRDNAKNTVYLQMNSLKPVDTAVYYCAAQKYYPYSYYLNNDYWGLGTQVTVSS”: “low polyreactivity”; for “QVQLVESGGGLVQAGGSLRLSCAASGSTFYANAMGWYRQAPGKERELVAAISSRGGSTSYADSVKGRFTISRDNAKNTVYLQMNSLKPEDTAVYYCNKVTRYYYRGFDYWGQGTQVTVSS”: “high polyreactivity”.
For the sequence “QVQLVESGGGLVQAGGSLRLSCAASGSTFYANAMGWYRQAPGKERELVAAITRSGAGTYYADSVKGRFTISRDNAKNTVYLQMNSLKPEDTAVYYCAKRTKTPTGYVWGGYDYWGQGTQVTVSS”, the “polyreactivity (PSR sort gate)” value is “high polyreactivity”.
The result for “QVQLVESGGGLVQAGGSLRLSCAASGSTFYANTMGWYRTAPGKERELVAAITYGGGNTYYADSVKGRFTISRDNAKNTVYLQMNSLKPEDTAVYYCAARDYVSYYTRFDYWGQGTQVTVSS” reads “high polyreactivity”.
“QVQLVESGGGLVQAGGSLRLSCAASGSTFYAYAMGWYRQAPGKERELVAAIDSGGSTYYADSVKGRFTISRDNAKNTFYLEMNSLKPEDTAVYYCAVRHRYTRAYWGRDYWGQGTQVTVSS”: the “polyreactivity (PSR sort gate)” value is “low polyreactivity”.
As for “QVQLVESGGGLVQAGGSLRLSCAASGSTFYAYAMGWYRQAPGKERELVAAINSVGSTYYADSVKGRFTISRDNAKNTVYLQMNSLKPEDTAVYYCARGVDYPTSQPPYFRHDYWGQGTQVTVSS”, the “polyreactivity (PSR sort gate)” value is given as “low polyreactivity”.
“QVQLVESGGGLVQAGGSLRLSCAASGSTFYAYTKGWSRQAPGKERELVADISSGGGTYYADSVKGRFTISRDNAKNTVYLQMNSLKPEDTAVYYCNADWRVGRQLSKAKIPYDYWGQGTQVTVSS”: the “polyreactivity (PSR sort gate)” value was “low polyreactivity”.
The result for “QVQLVESGGGLVQAGGSLRLSCAASGSTFYAYVMGWYRQAPGKERELVAAITSAGSTYYADSVKGRFTISRDNAKNTVYLQMNSLKPEDTAVYYCAAYYIVHSRQTQGFERYDYWGQGTQVTVSS” reads “low polyreactivity”; that for “QVQLVESGGGLVQAGGSLRLSCAASGSTFYAYVMGWYRQAPGKERELVAGISWSGGSTYYADSVKGRFTISRDNAKNTVYLQMNSLKPEDTAVYFFAADYYNTYGYDYWGQGTQVTVSS”, “low polyreactivity”; that for “QVQLVESGGGLVQAGGSLRLSCAASGSTFYDNAMGWYRQAPGKERELVAAIDGGDTYYADSVKGRFTISRDNAKNTVYLQMISLKPEDTAVYYCAAESLPEISVGLGYWGQGTQVTVSS”, “low polyreactivity”.
For the sequence “QVQLVESGGGLVQAGGSLRLSCAASGSTFYDNAMGWYRQAPGKERELVARIRWSGVRTYYADSVKGRFTISRDNAKNTVYLQMISLKPEDTAVYYCAAGRPRPHWWSLDYYYWGQGTQVTVSS”, the “polyreactivity (PSR sort gate)” value is given as “low polyreactivity”.
Take “QVQLVESGGGLVQAGGSLRLSCAASGSTFYFNAMGWYIQAPGKERELVADINYSGTSTYYADSVKGRFTISRDNAKNTVYLQMNSLKPEDTAVYYCAKSLPSSNTSTSYDYWGQGTQVTVSS”: the “polyreactivity (PSR sort gate)” value was “low polyreactivity”.
Regarding “QVQLVESGGGLVQAGGSLRLSCAASGSTFYFNAMGWYRQAPGKERELVATISDNDGSTNYADSVKGRFTISRDNAKNTVYLLMISLKPEDTGVYYCNADWYYYYEEDDYWGQGTQVTVSS”, the “polyreactivity (PSR sort gate)” value is recorded as “low polyreactivity”.
In the case of “QVQLVESGGGLVQAGGSLRLSCAASGSTFYFYAMGWYRQAPGKERELVAAISQSGGTTYYADSVKGRFTISRDNAKNTVFLQMNSLKPEDTAVYYCNADTDTWYTEYDYWGQGTQVTVSS”, the “polyreactivity (PSR sort gate)” value is given as “low polyreactivity”.
The same measure for “QVQLVESGGGLVQAGGSLRLSCAASGSTFYFYAMGWYRQAPGKERELVAAISSSGGSTYYADSVKGRFTISRDNAKNTVYLQMNSLKPEDTAVYYCAADDAIYDSLDYWGQGTQVTVSS”: “low polyreactivity”; for “QVQLVESGGGLVQAGGSLRLSCAASGSTFYFYTMVWYRQAPGKEREFVAAISRRGGSTYYADSVKGRFTISRDNAKNTVYLQMNSLKPEDTAVYYCAAYTSTSDNGDSWGQGTQVTVSS”: “high polyreactivity”.
The result for “QVQLVESGGGLVQAGGSLRLSCAASGSTFYGNAMGRYRQAPGKEWELVAAISWSGGSTYYADSVKGRFTISRDNAKNTVYLQMNSLKPEDTAVYYCNADGSDRVWYDGYDYWGQGTQVTVSS” reads “low polyreactivity”; that for “QVQLVESGGGLVQAGGSLRLSCAASGSTFYGNAMGWYRQAPGKERELVAAISWSGGSTYYADSVKGRFTISRDNAKNTVYLQMNSLKPEDTAVYYCNKDVLLYYVYGHDYWGQGTQVTVSS”, “low polyreactivity”; that for “QVQLVESGGGLVQAGGSLRLSCAASGSTFYGYAMGWYRQAPGKERELVAAITRSGGSTYYADSVKGRFTISRDNAKNTVYLQMNSLKPEDTEVYYCNKYGYKGGVGYDYWGQGSQVTVSS”, “high polyreactivity”.
The same measure for “QVQLVESGGGLVQAGGSLRLSCAASGSTFYGYAMGWYRQAPGKERELVAAITVRGGSTYYADSVKGRFTISRDNAKNTVYLQMNSLKPEDTAVYYCAKGRLRRTYYRNKFSFDYWGQGTQVTVSS”: “high polyreactivity”.
As for “QVQLVESGGGLVQAGGSLRLSCAASGSTFYGYTMGWYRQAPGKERELVAAISSSGSSTYYADSVKGRFTISRDNAKNTVYLQMNSLKPVDTAVYYCAAATRVPGHGSTSYYYWGQGTQVTVSS”, the “polyreactivity (PSR sort gate)” value is listed as “high polyreactivity”.
The same measure for “QVQLVESGGGLVQAGGSLRLSCAASGSTFYGYVMGWYRQAPGKERDFVAGITRGGSTNYADSVKGRFTISRDNAKNTVYLQMNSLKPEDTAVYYCATRYFSRYYYWGQGTQVTVSS”: “high polyreactivity”.
The result for “QVQLVESGGGLVQAGGSLRLSCAASGSTFYHYAMGWYRQAPGKERELVAAISSSGGRTYYADSVKGRFTISRDNAKNTVYLQMNSLKPEDTAVYYCAARAKTSGSIEDYWGQGTQVTVSS” reads “high polyreactivity”.
Take “QVQLVESGGGLVQAGGSLRLSCAASGSTFYINALGWYRQAPGKESELVAAITWNSDSTYYADSVKVRFTISRDNSKNTVYLQMNSLKPEDTAVYYCNHDRIIWGRLYEEGDYWGQGTQVTVSS”: the “polyreactivity (PSR sort gate)” value was “low polyreactivity”.
Regarding “QVQLVESGGGLVQAGGSLRLSCAASGSTFYIYAMGWSRQAPGKEREFVAAIDFSGSSTYADSVKGRFTISLDNAKNTVYLQMNSLKPEDTAVYYCAAYQIYQYYGPYDYWGQGTQVTVSS”, the “polyreactivity (PSR sort gate)” value is “low polyreactivity”.
The same measure for “QVQLVESGGGLVQAGGSLRLSCAASGSTFYIYAMGWYRQAPGKEREFVAAIDLSGSSTYADSVKGRFTISRDNAKNTVYLQMKSLKPEDTAVYYCAAYQIYQYDGPYDYWGQGTQVTVSS”: “low polyreactivity”; for “QVQLVESGGGLVQAGGSLRLSCAASGSTFYIYAMGWYRQAPGKERELVARITRGGTTYADSVKGRFTISRDNAKNTVYLQMNSLKLEDTAVYYCNAASKTTRYYQAFYSGGGYWGQGTQVTVSS”: “high polyreactivity”.
In the case of “QVQLVESGGGLVQAGGSLRLSCAASGSTFYIYAMGWYRQATGKERELVARITRGGTTYADSEKGRFTISRDNAKNTVYLQMNSLKPEDTAVYYCNAASKTTRYYQAFYSGGGYWGQGTQVTVSS”, the “polyreactivity (PSR sort gate)” value is listed as “high polyreactivity”.
For “QVQLVESGGGLVQAGGSLRLSCAASGSTFYIYGMGWYRQAPGKERELVAAISQRDGSTYYADSEKGRFTSSRDNAKNTVYLQMNSLKPEDTAVYYCNAGLWYSSYDSDYWGQGTQVTVSS”, the “polyreactivity (PSR sort gate)” value is “low polyreactivity”.

The record behind these values is the nanobody polyreactivity screen of Harvey et al. (2022).
